Laboratory results published in publication PMC8046669, “Structural basis of nucleosome transcription mediated by Chd1 and FACT” (Nature Structural & Molecular Biology, 2021).

Molecular target: T1, S. cerevisiae FACT (heterodimer of Spt16 and Pob3) (S. cerevisiae, UniProt P32558 1-1035; Q04636 1-552)
T1 construct: Spt16, subunit of FACT, S. cerevisiae; Pob3, subunit of FACT, S. cerevisiae
Assay: SEC; size exclusion chromatography runs of Chd1 constructs with FACT, fractions analysed by SDS-PAGE
Details: both partners purified

T1 sequence (P32558 whole entry, chain 1 of 2): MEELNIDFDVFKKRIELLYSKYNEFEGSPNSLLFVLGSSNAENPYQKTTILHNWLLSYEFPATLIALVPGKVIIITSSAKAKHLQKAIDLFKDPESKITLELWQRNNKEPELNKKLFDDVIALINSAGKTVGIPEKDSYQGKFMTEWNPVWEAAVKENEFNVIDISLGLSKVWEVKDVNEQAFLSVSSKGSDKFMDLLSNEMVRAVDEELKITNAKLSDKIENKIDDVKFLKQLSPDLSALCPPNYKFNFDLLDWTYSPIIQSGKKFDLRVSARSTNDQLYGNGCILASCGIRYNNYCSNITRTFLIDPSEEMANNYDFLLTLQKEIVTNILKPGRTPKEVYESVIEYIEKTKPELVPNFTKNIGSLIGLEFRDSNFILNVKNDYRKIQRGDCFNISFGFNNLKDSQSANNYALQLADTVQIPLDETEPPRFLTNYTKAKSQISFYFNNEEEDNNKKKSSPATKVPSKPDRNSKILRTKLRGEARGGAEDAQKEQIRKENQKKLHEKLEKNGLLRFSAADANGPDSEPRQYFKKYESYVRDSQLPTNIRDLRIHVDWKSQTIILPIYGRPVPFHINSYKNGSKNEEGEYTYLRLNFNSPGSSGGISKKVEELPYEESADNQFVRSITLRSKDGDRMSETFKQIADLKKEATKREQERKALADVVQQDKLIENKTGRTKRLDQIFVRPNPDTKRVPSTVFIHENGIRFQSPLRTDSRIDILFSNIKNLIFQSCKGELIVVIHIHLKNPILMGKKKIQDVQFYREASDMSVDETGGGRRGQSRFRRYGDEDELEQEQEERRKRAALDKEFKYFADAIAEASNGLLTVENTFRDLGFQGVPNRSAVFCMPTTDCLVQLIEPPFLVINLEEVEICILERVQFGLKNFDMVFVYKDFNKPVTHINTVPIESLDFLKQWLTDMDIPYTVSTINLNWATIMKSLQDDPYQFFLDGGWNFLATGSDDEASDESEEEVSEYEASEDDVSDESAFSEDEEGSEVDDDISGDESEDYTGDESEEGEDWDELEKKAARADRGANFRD
T1 sequence (Q04636 whole entry, chain 2 of 2): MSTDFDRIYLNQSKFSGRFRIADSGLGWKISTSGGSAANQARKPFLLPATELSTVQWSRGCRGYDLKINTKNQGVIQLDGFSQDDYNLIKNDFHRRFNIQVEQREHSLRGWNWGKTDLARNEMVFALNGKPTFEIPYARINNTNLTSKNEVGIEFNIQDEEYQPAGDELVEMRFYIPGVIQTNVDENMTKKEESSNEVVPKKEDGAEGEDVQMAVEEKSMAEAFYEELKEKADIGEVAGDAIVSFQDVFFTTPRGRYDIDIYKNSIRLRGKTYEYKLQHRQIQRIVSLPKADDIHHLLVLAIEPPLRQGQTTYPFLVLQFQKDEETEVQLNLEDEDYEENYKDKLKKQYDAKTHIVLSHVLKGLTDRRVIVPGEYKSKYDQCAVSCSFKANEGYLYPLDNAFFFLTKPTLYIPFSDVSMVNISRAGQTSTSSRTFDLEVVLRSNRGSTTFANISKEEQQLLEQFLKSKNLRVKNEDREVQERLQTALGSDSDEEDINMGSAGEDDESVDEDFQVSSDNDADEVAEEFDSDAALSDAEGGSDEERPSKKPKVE

binding result: binds
B1: S. cerevisiae Chd1 (enzyme)
chain: not shown
notes: Chd1, S. cerevisiae, chromatin remodeler; 1468 residues by the printed limits of the truncations; also called full-length Chd1
